One block for each binder: values may come before it.
How the values were obtained:
Aβ 20-42 globulomer [1] = molecular target: T1, Aβ 20-42 globulomer (UniProt P05067 691-713); assay: Aβ 20-42 globulomer ELISA, antigen on plate; parent antibody
T1 construct: domain: Aβ 20-42 globulomer
T1 peptide (looked up): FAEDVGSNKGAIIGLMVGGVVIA
Protocol: (§1) ELISA assays were performed to screen for antibodies that bind a desired target antigen as follows. Aβ 20-42 globulomer and PBS at 37° C. was pre-warmed for 1 minute. High bind ELISA plates (Corning Costar #3369, Acton, Mass.) were coated with 100 μL/well of 41 µg/ml of Aβ 20-42 globulomer diluted in PBS overnight at 4° C. Plates were blocked with 320 μL/well of 100% superblock PBS buffer (Thermo Scientific, #37515) and incubated for 45 minutes at room temperature. Plates were washed three times after blocking with PBS containing 0.02% Tween 20.
(§2) Antibody or DVD-Igs were diluted to 2000 ng/mL, 1000 ng/mL, 200 ng/mL, 40 ng/mL, 8 ng/mL, 1.6 ng/mL and 0.32 ng/mL in 10% superblock in PBS. One hundred microliters of antibody or DVD-Ig preparations was added to the plate in triplicate and incubated for 2 hours at room temperature. Wells were washed five times with PBS containing 0.02% Tween 20.
(§3) One hundred microliters of TMB solution (Invitrogen-Zymed; #00-2023) was added to each well and incubated for 5 minutes. The reaction was stopped by the addition of 100 μL 2N sulphuric acid. Plates were read spectrophotometrically at a wavelength of 450 nm.

IGF-I [2] = molecular target: T2, IGF-I (UniProt P05019 49-118); assay: direct bind ELISA, antigen on plate; C-terminal VD
T2 construct: Bought reagent; also called IGF1; IGF-1
Protocol: (§4) Enzyme Linked Immunosorbent Assays to screen for antibodies that bind a desired target antigen were performed as follows. High bind ELISA plates (Corning Costar #3369, Acton, Mass.) were coated with 100 μL/well of 10 μg/ml of desired target antigen (R&D Systems, Minneapolis, Minn.) or desired target antigen extra-cellular domain/FC fusion protein (R&D Systems, Minneapolis, Minn.) or monoclonal mouse anti-polyHistidine antibody (R&D Systems # MAB050, Minneapolis, Minn.) in phosphate buffered saline (10×PBS, Abbott Bioresearch Center, Media Prep# MPS-073, Worcester, Mass.) overnight at 4° C. Plates were washed four times with PBS containing 0.02% Tween 20. Plates were blocked by the addition of 300 μL/well blocking solution (non-fat dry milk powder, various retail suppliers, diluted to 2% in PBS) for 1/2 hour at room temperature. Plates were washed four times after blocking with PBS containing 0.02% Tween 20.
(§5) One hundred microliters of antibody or DVD-Ig preparations diluted in blocking solution as described above was added to the desired target antigen plate or desired target antigen/FC fusion plate or the anti-polyHistidine antibody/His tagged desired target antigen plate prepared as described above and incubated for 1 hour at room temperature. Wells were washed four times with PBS containing 0.02% Tween 20.
(§6) One hundred microliters of 10 ng/mL goat anti-human IgG-FC specific HRP conjugated antibody (Southern Biotech #2040-05, Birmingham, Ala.) was added to each well of the desired target antigen plate or anti-polyHistidine antibody/Histidine tagged desired target antigen plate. Alternatively, one hundred microliters of 10 ng/mL goat anti-human IgG-kappa light chain specific HRP conjugated antibody (Southern Biotech #2060-05 Birmingham, Ala.) was added to each well of the desired target antigen/FC fusion plate and incubated for 1 hour at room temperature. Plates were washed 4 times with PBS containing 0.02% Tween 20.

IGF-II [3] = molecular target: T3, IGF-II (UniProt P01344 25-91); assay: direct bind ELISA, antigen on plate; C-terminal VD
T3 construct: Bought reagent; also called IGF2; IGF-2
Protocol: as §4, §5, §6

Aβ1-42 [4] = molecular target: T4, Aβ1-42 (UniProt P05067 672-713); assay: Aβ 1-42 ELISA, peptide on plate; N-terminal VD
T4 construct: domain: Aβ1-42; Aβ 1-42 is a part of it; also called A beta
Protocol: (§7) ELISA assays were performed to screen for antibodies that bind a desired target antigen as follows. Maxisorb NUNC Immuno plates were coated with 100 μL/well of 1 μg/ml of Aβ1-42 diluted in coating buffer overnight at 6° C. Plates were washed three times with PBS containing 0.02% Tween 20. Blocking solution was prepared by dissolving the blocking reagent for ELISA (Roche) in 100 mL water and then diluted further 1:10 prior to use. Plates were blocked by the addition of 265 μL/well blocking solution for 2 hours at room temperature. Plates were washed three times after blocking with PBS containing 0.02% Tween 20.
(§8) Antibody or DVD-Igs were diluted to 100 ng/μL in PBST+0.5% BSA and serially diluted 1:3. One hundred microliters of antibody or DVD-Ig preparations was added to the plate and incubated for 2 hour at room temperature. Wells were washed three times with PBS containing 0.02% Tween 20.
(§9) One hundred microliters of TMB solution was added to each well and incubated for 10 minutes. TMB solution was prepared by mixing 20 mL 100 mM natrium-acetate pH4.9 with 200 μL TMB solution (Roche #92817060) and 29.5 μL 3% H₂O₂. The reaction was stopped by the addition of 50 μL 1N sulphuric acid. Plates were read spectrophotometrically at a wavelength of 450 nm.

Aβ1-42 [5] = molecular target: T4, Aβ1-42; assay: Aβ 1-42 ELISA, peptide on plate; C-terminal VD
Protocol: as §7, §8, §9

Aβ 20-42 globulomer [6] = molecular target: T1, Aβ 20-42 globulomer; assay: Aβ 20-42 globulomer ELISA, antigen on plate; N-terminal VD
Protocol: as §1, §2, §3

Aβ1-42 [7] = molecular target: T4, Aβ1-42; assay: Aβ 1-42 ELISA, peptide on plate; parent antibody
Protocol: as §7, §8, §9

Recombinant Human IL-1β [8] = molecular target: T5, Recombinant Human IL-1β (human, UniProt P01584 117-269); assay: cell-based or functional assay
Recombinant Human IL-1β [9] = molecular target: T5, Recombinant Human IL-1β; assay: direct bind ELISA, antigen on plate; C-terminal VD
Protocol: as §4, §5, §6

IGF-II [10] = molecular target: T3, IGF-II; assay: direct bind ELISA, antigen on plate; parent antibody; second of the two numbers, IGF2
Protocol: as §4
as §5, with “20. […]” for “20.”

IGF-I [11] = molecular target: T2, IGF-I; assay: direct bind ELISA, antigen on plate; parent antibody; first of the two numbers, IGF1
Protocol: as §4
as §5, with “20. […]” for “20.”

Recombinant Human IL-1β [12] = molecular target: T5, Recombinant Human IL-1β; assay: direct bind ELISA, antigen on plate; N-terminal VD
Protocol: as §4, §5, §6

Aβ 20-42 globulomer [13] = molecular target: T1, Aβ 20-42 globulomer; assay: Aβ 20-42 globulomer ELISA, antigen on plate; C-terminal VD
Protocol: as §1, §2, §3

- EC50 (Aβ 20-42 globulomer [1]): 0.319 nM
B1: AB044 (antibody, human IgG1, lambda, V domains shown)
VH: EVKLVESGGGLVKPGGSLRLSCAASGFTFSSYAMSWVRQAPGKGLEWVASIHNRGTIFYLDSVKGRFTISRDNVRNTLYLQMNSLRAEDTAVYYCTRGRSNSYAMDYWGQGTSVTVSS
VL: DVLVTQSPLSLPVTPGEPASISCRSTQTLVHRNGDTYLEWYLQKPGQSPQSLIYKVSNRFSGVPDRFSGSGSGTDFTLKISRVEAEDVGVYYCFQGSHVPYTFGQGTKLEIKR
notes: the light constant region is therefore doubtful

- EC50 (IGF-I [2]): 210 nM
- EC50 (IGF-II [3]): 131 nM
- EC50 (Aβ1-42 [4]): 0.016 nM
B2: DVD229 (bispecific antibody, human IgG1, lambda)
heavy: not shown
light: DVVMTQSPLSLPVTPGEPASISCKSSQSLLDSDGKTYLNWLLQKPGQSPQRLIYLVSKLDSGVPDRFSGSGSGTDFTLKISRVEAEDVGVYYCWQGTHFPRTFGQGTKVEIKRTVAAPQSVLTQPPSVSAAPGQKVTISCSGSSSNIENNHVSWYQQLPGTAPKLLIYDNNKRPSGIPDRFSGSKSGTSATLGITGLQTGDEADYYCETWDTSLSAGRVFGGGTKLTVLGQPKAAPSVTLFPPSSEELQANKATLVCLISDFYPGAVTVAWKADSSPVKAGVETTTPSKQSNNKYAASSYLSLTPEQWKSHRSYSCQVTHEGSTVEKTVAPTECS
notes: DVD-Ig; also called VD229H/VD229L

- EC50 (Aβ1-42 [5]): 0.024 nM
- EC50 (Aβ 20-42 globulomer [6]): 0.397 nM
B3: DVD201 (bispecific antibody, human IgG1, kappa)
heavy: not shown
light: DVLVTQSPLSLPVTPGEPASISCRSTQTLVHRNGDTYLEWYLQKPGQSPQSLIYKVSNRFSGVPDRFSGSGSGTDFTLKISRVEAEDVGVYYCFQGSHVPYTFGQGTKLEIKRTVAAPDVVMTQSPLSLPVTPGEPASISCKSSQSLLDSDGKTYLNWLLQKPGQSPQRLIYLVSKLDSGVPDRFSGSGSGTDFTLKISRVEAEDVGVYYCWQGTHFPRTFGQGTKVEIKRTVAAPSVFIFPPSDEQLKSGTASVVCLLNNFYPREAKVQWKVDNALQSGNSQESVTEQDSKDSTYSLSSTLTLSKADYEKHKVYACEVTHQGLSSPVTKSFNRGEC
notes: DVD-Ig; also called VD201H/VD201L

- EC50 (Aβ1-42 [7]): 0.012 nM
B4: AB043 (antibody, human IgG1, kappa, V domains shown)
VH: EVQLLESGGGLVQPGGSLRLSCAASGFTFSNYGMSWVRQAPGKGLEWVASIRSGGGRTYYSDNVKGRFTISRDNSKNTLYLQMNSLRAEDTAVYYCVRYDHYSGSSDYWGQGTLVTVSS
VL: DVVMTQSPLSLPVTPGEPASISCKSSQSLLDSDGKTYLNWLLQKPGQSPQRLIYLVSKLDSGVPDRFSGSGSGTDFTLKISRVEAEDVGVYYCWQGTHFPRTFGQGTKVEIKR

- C-Terminal VD IL-1β Neutralization Assay EC50 (Recombinant Human IL-1β [8]): 12.7 nM
- EC50 (Recombinant Human IL-1β [9]): 3940 nM
- EC50 (Aβ1-42 [4]): 0.016 nM
B5: DVD225 (bispecific antibody, human IgG1, kappa)
heavy: not shown
light: DVVMTQSPLSLPVTPGEPASISCKSSQSLLDSDGKTYLNWLLQKPGQSPQRLIYLVSKLDSGVPDRFSGSGSGTDFTLKISRVEAEDVGVYYCWQGTHFPRTFGQGTKVEIKRTVAAPEIVLTQSPDFQSVTPKEKVTITCRASQSIGSSLHWYQQKPDQSPKLLIKYASQSFSGVPSRFSGSGSGTDFTLTINSLEAEDAAAYYCHQSSSLPFTFGPGTKVDIKRTVAAPSVFIFPPSDEQLKSGTASVVCLLNNFYPREAKVQWKVDNALQSGNSQESVTEQDSKDSTYSLSSTLTLSKADYEKHKVYACEVTHQGLSSPVTKSFNRGEC
notes: DVD-Ig; also called VD225H/VD225L

- EC50 (IGF-II [10]): 2.93 nM
- EC50 (IGF-I [11]): 10.1 nM
B6: AB010 (antibody, human IgG1, lambda, V domains shown)
VH: QVQLVQSGAEVKKPGASVKVSCKASGYTFTSYDINWVRQATGQGLEWMGWMNPNSGNTGYAQKFQGRVTMTRNTSISTAYMELSSLRSEDTAVYYCARDPYYYYYGMDVWGQGTTVTVSS
VL: QSVLTQPPSVSAAPGQKVTISCSGSSSNIENNHVSWYQQLPGTAPKLLIYDNNKRPSGIPDRFSGSKSGTSATLGITGLQTGDEADYYCETWDTSLSAGRVFGGGTKLTVLG
notes: also called IGF1,2 parent antibody

- EC50 (Recombinant Human IL-1β [12]): 9.52 nM
- EC50 (Aβ1-42 [5]): 0.045 nM
- N-Terminal VD IL-1β Neutralization Assay EC50 (Recombinant Human IL-1β [8]): 0.028 nM
B7: DVD226 (bispecific antibody, human IgG1, kappa)
heavy: not shown
light: EIVLTQSPDFQSVTPKEKVTITCRASQSIGSSLHWYQQKPDQSPKLLIKYASQSFSGVPSRFSGSGSGTDFTLTINSLEAEDAAAYYCHQSSSLPFTFGPGTKVDIKRTVAAPDVVMTQSPLSLPVTPGEPASISCKSSQSLLDSDGKTYLNWLLQKPGQSPQRLIYLVSKLDSGVPDRFSGSGSGTDFTLKISRVEAEDVGVYYCWQGTHFPRTFGQGTKVEIKRTVAAPSVFIFPPSDEQLKSGTASVVCLLNNFYPREAKVQWKVDNALQSGNSQESVTEQDSKDSTYSLSSTLTLSKADYEKHKVYACEVTHQGLSSPVTKSFNRGEC
notes: DVD-Ig; also called VD226H/VD226L

- EC50 (Aβ 20-42 globulomer [13]): 0.178 nM
- EC50 (Aβ1-42 [4]): 0.017 nM
B8: DVD202 (bispecific antibody, human IgG1, kappa)
heavy: not shown
light: DVVMTQSPLSLPVTPGEPASISCKSSQSLLDSDGKTYLNWLLQKPGQSPQRLIYLVSKLDSGVPDRFSGSGSGTDFTLKISRVEAEDVGVYYCWQGTHFPRTFGQGTKVEIKRTVAAPDVLVTQSPLSLPVTPGEPASISCRSTQTLVHRNGDTYLEWYLQKPGQSPQSLIYKVSNRFSGVPDRFSGSGSGTDFTLKISRVEAEDVGVYYCFQGSHVPYTFGQGTKLEIKRTVAAPSVFIFPPSDEQLKSGTASVVCLLNNFYPREAKVQWKVDNALQSGNSQESVTEQDSKDSTYSLSSTLTLSKADYEKHKVYACEVTHQGLSSPVTKSFNRGEC
notes: DVD-Ig; also called VD202H/VD202L

— patent US20150183867A1 (AbbVie / Abbott, published 2015)
